Changes are numbered by the printed parent chain. In names and notes the source's numbering stands.
T1: human CTLA-4 expressed on cells (293-hCTLA-4 cells; CTLA-4-expressing CHO-K1 cells) (human, UniProt P16410 36-223)
T1 construct: The same id is used for native CTLA-4 on PBMC in the IL-2 assay; also called CD152; cell-expressed CTLA-4
T1 sequence: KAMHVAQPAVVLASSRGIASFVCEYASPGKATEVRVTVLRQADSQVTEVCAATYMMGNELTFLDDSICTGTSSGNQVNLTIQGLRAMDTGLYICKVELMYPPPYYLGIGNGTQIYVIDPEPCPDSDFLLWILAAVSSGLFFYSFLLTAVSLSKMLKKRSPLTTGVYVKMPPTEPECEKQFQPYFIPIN

T2: cyno CTLA-4 expressed on 293 cells (293-cynoCTLA-4 cells) (cyno, UniProt G7PL88 36-223)
T2 construct: also called cynomolgus CTLA-4
T2 sequence: T1 sequence with S14N, L106M

T3: Recombinant human CTLA-4-his protein (CT4-H5229, Acro Bio) (human, UniProt P16410 36-161)
T3 construct: extracellular domain; Bought protein; also called Human CTLA-4^ECD-his; not shown: his tag
T3 sequence (looked up): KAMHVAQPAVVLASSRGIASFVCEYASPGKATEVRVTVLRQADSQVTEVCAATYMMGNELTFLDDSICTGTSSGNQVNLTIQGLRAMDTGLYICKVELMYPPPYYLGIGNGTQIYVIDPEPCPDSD

B1: CL5-dPTM′ (antibody, human IgG1, V domains shown)
VH: EVQLVESGGGLIQPGGSLRLSCAVSGFTVSKNYMSWVRQAPGKGLEWVSVVYSGGSKTYADSVKGRFTISRDNSKNTLYLQMNSLRAEDTAVYYCARAVPHSPSSFDIWGQGTMVTVSS
notes: HCAb variant with PTM removal
B2: CL5-dPTM (antibody, human IgG1, V domains shown)
VH: B1 VH with V5A, S7T, A40V, S49A, T68I, I69L, K75D, S84N
notes: HCAb variant with PTM removal
B3: CL11-dPTM′ (antibody, human IgG1, V domains shown)
VH: B1 VH with V24A, K31R, N32I, V51I, K57I, T58Y, N73S, L78V, H101S, S102A
notes: HCAb variant with PTM removal
B4: CL22-dPTM (antibody, human IgG1, V domains shown)
VH: EVQLVETGGGLIQPGGSLRLSCAVSGFTVRNNYMSWARQVPGKGLEWVSVIYSGGSITYADSVKGRFIISRDNSKNTLYLQMNGLRAEDTAVYYCARAVPHAPSAFDIWGQGTMVTVSS
notes: HCAb variant with PTM removal
B5: CL25-dPTM (antibody, human IgG1, V domains shown)
VH: B1 VH with S7T, V24A, K31S, V51I, K57T, T58Y, N83S, S105A, I108R, M114L
notes: HCAb variant with PTM removal
B6: CL25-dPTM′ (antibody, human IgG1, V domains shown)
VH: B1 VH with V24A, K31S, V51I, K57T, T58Y, S105A, I108R, M114L
notes: HCAb variant with PTM removal
B7: CL5 (antibody, human IgG1, V domains shown)
VH: B1 VH with V5A, S7T, T28N, A40V, S49A, T68I, I69L, K75D, S84N
notes: Human heavy-chain-only antibody (HCAb): two heavy chains, no light chain; also called HCAb clone 5
B8: CL22 (antibody, human IgG1, V domains shown)
VH: B4 VH with K75N
notes: Human heavy-chain-only antibody (HCAb): two heavy chains, no light chain; also called clone 22
B9: CL25 (antibody, human IgG1, V domains shown)
VH: EVQLVETGGGLIQPGGSLRLSCAASGFTVSSNYMSWVRQAPGKGLEWVSVIYSGGSTYYADSVKGRFTISRDNSKNTLYLQMSNLTAEDTAVYYCARAVPHSPSAFDRWGQGTLVTVSS
notes: Human heavy-chain-only antibody (HCAb): two heavy chains, no light chain; also called clone25
B10: CL30 (antibody, human IgG1, V domains shown)
VH: EVQLEETGGDLIQPGGSLRLSCTASGFNVSRIYMSWVRQAPGKGLEWVSVIYSGGSIYYADSVRGRFTISRDSSTNTVYLQMNSLRAEDSAVYYCARAVPHAPSNFDKWGQGTRVTVSS
notes: Human heavy-chain-only antibody (HCAb): two heavy chains, no light chain; also called clone 30
B11: CL3 (antibody, human IgG1, V domains shown)
VH: EVQLVEIGGGEIQPGGSLRLSCAASGFNVSKNYMSWVRQAPGKGLEWVSVIYSGGGTEYAASVKGRFNISRDSSKNMLYLQMNNLRAEDTAVYYCARAVPRPHGTDIWGQGTMVTVSS
notes: Human heavy-chain-only antibody (HCAb): two heavy chains, no light chain
B12: CL5′-dPTM′ (antibody, human IgG1, V domains shown)
VH: B1 VH
notes: HCAb variant with PTM removal
B13: CL5′-eA-dPTM′ (antibody, human IgG1, V domains shown)
VH: B1 VH
notes: HCAb variant with PTM removal and the eA (S239D, I332E) Fc
B14: CL22-dPTM′ (antibody, human IgG1, V domains shown)
VH: B4 VH with T7S, V24A, A37V, V40A, I68T, G84S
notes: HCAb variant with PTM removal
B15: CL30-dPTM′ (antibody, human IgG1, V domains shown)
VH: B10 VH with E5V, T7S, D10G, T23A, N28T, R64K, T75K, S90T, R114L
notes: HCAb variant with PTM removal

The binders below were run against T1, human CTLA-4 expressed on cells … (assay: cell-based blocking assay, flow cytometry: % blocking of biotin labeled B7.1 binding to 293-hCTLA-4 cells).

Row | Binder | IC50 (read off the curve) [nM]
1 | B1 | ~7
2 | B2 | ~7
3 | B3 | ~7
4 | B4 | ~7
5 | B5 | ~7
6 | B6 | ~7

Each binder was assayed against T2, cyno CTLA-4 expressed on 293 cells … (assay: flow cytometry (MFI) on 293 cells expressing cynomolgus CTLA-4, Alexa 488 anti-human (H+L) detection).
Description: (§1) The culture medium was aspirated, and the cells were washed twice with HBSS (Hanks Balanced Salt Solution, Invitrogen). The cells were treated with enzyme-free cell dissociation solution (Versene solution, Invitrogen) and collected. The cells were then washed twice with HBSS, cell counts were determined, and cells were resuspended with HBSS at 2×10⁶ cells/mL. BSA was added to the cell suspension to a final concentration of 1%, and the cells were blocked for 30 minutes on ice and then washed twice with HBSS. The cells were collected after centrifugation and resuspended in FACS buffer (HBSS+1% BSA, v/v) at 2×10⁶ cells/mL. 100 μL of the cell suspension were then added to each well of a 96-well plate. 100 μL of purified anti-CTLA-4 antibodies from Example 2 or control antibodies were added to each well of the 96-well plate and incubated for 1 hour on ice, wherein the heavy chain and light chain of the Ipilimumab analogue had amino acid sequences of SEQ ID NO.: 199 and SEQ ID NO.: 200, respectively. Cells were washed twice with FACS buffer, and 100 μL of Alexa 488-labeled anti-human (H+L) antibody (Invitrogen) were added to the 96-well plate and incubated for 1 hour on ice. The samples were washed three times with FACS buffer, and 100 μL of fixation buffer (containing 4% paraformaldehyde, v/v) were added to each well and incubated for 10 minutes. The cells were then washed twice with FACS buffer and resuspended in 100 μL of FACS buffer.

Row | Binder | EC50 (read off the curve) [nM]
7 | B7 | ~1
8 | B8 | ~1
9 | B9 | ~1
10 | B10 | ~1
11 | B11 | ~1

Each binder was assayed against T1, human CTLA-4 expressed on cells … (assay: flow cytometry (MFI) on 293F-hCTLA-4 cells, Alexa 488 anti-human (H+L) detection).
Description: Cell-based binding assay was performed to determine the binding ability of the anti-CTLA-4 antibody variants with PTM removal to human CTLA-4. The assay procedure was similar to that described in Example 3. […] Cells were centrifuged and blocked in blocking buffer (containing 2% BSA, pH 7.4 PBS buffer, w/v) at 1×10⁶ cells/mL for 15 minutes at 37° C. 200 μL of cells were dispensed to each well of the 96-well plates (2×10⁵ cells/well). The plates were centrifuged and the supernatants were discarded. The cells were resuspended in 100 μL of anti-CTLA-4 antibodies prepared in blocking buffer. The plates were incubated at 4° C. for 90 minutes and washed twice. After the blocking buffer was discarded, the cells were resuspended in 100 μL of Alexa 488-labeled anti-human (H+L) antibody (1:500, Invitrogen) and incubated at 4° C. for 1 hour. The cells were washed and resuspended in 200 μL of blocking buffer. The mean fluorescence intensity (MFI) was determined using FACS Calibur (BD).

Row | Binder | EC50 (read off the curve) [nM]
12 | B1 | ~1
13 | B2 | ~1
14 | B3 | ~1
15 | B4 | ~1
16 | B5 | ~1
17 | B6 | ~1

Each binder was assayed against T3, Recombinant human CTLA-4-his protein … (assay: SPR, Biacore T200, antibody immobilised, CTLA-4-his injected, 1:1 model).
Description: Dissociation constants were determined by Biacore T200 (GE Healthcare), following the specifications of the instrument provided by the manufacturer. Briefly, 1 μg/mL diluted anti-CTLA-4 antibodies in 10 mM NaOAc (pH 5.0, sigma) were immobilized on flow cell of a Series S CMS sensor chip. Remaining active ester groups were blocked with 1 M ethanolamine (pH 8.5). With HBS-EP+ as the running buffer, recombinant human CTLA-4-his (CT4-H5229, AcroBio) and cynoCTLA-4-his proteins (CT4-05227, AcroBio) with five serial diluted concentrations were injected over flow cells at 30 μL/min with the association time of 180 s. Buffer flow was maintained for dissociation for 600s.

Row | Binder | Kd [nM] | koff [s⁻¹] | kon [M⁻¹ s⁻¹]
18 | B12 | 0.0428 | 0.000229 | 5.35e+06
19 | B13 | 0.014 | 7.58e-05 | 5.4e+06

Each binder was assayed against T1, human CTLA-4 expressed on cells … (assay: flow cytometry (MFI) on 293 cells expressing human CTLA-4, Alexa 488 anti-human (H+L) detection).
Description: as §1

Row | Binder | EC50 (read off the curve) [nM]
20 | B7 | ~2
21 | B8 | ~2
22 | B9 | ~2
23 | B10 | ~2
24 | B11 | ~2

These binders were tested against T1, human CTLA-4 expressed on cells … (assay: cell-based blocking assay, flow cytometry: % blocking of biotinylated B7.1 ECD-Fc binding to 293-hCTLA-4 cells).
Description: Cell-Based Receptor-Ligand Binding assay was performed to determine the ability of the anti-CTLA-4 antibodies to block the binding of CTLA-4 to its ligands B7.1. Recombinant B7.1^ECD-Fc protein (B71-H5259, Acro Bio) was biotinylated using EZ-LINK NHS-PEG12-Biotin (Thermo Scientific#21312) according to the manufacturer's instruction. Biotinylated B7.1^ECD-Fc protein was concentrated and free label removed by using Amicon centrifugal filter (10 kDa cut off). The extracellular domain of B7.1 corresponded to amino acids Val35-Asn242 of Uniprot database protein P33681.
The culture medium was aspirated, and the cells were washed twice with PBS. The cells were treated with enzyme-free cell dissociation solution (Versene solution, Invitrogen) and collected. Dissociation solution was neutralized by the addition of 8 mL of culture medium, and cell counts were determined. Cells were centrifuged at 300 g for 5 minutes and resuspended in blocking buffer (containing 2% BSA, pH 7.4 PBS buffer, w/v) at 1×10⁶ cells/mL. The cells were blocked for 15 minutes at 37° C. Meanwhile, the wells of 96-well round-bottom plates were blocked with 200 μL of blocking buffer for 1 hour at 37° C. The blocking buffer was discarded, and 200 μL of cells were dispensed to each well of the 96-well plates (2×10⁵ cells/well). The plates were centrifuged at 500 g for 5 minutes, and the supernatants were discarded. The cells were resuspended in 100 μL of anti-CTLA-4 antibodies prepared in blocking buffer with varying concentrations. 100 μL of biotinylated B7.1 ECD-Fc (60 μg/mL in blocking buffer) were added to each well of 96-well plate and mixed by shaking gently. The plates were incubated at 4° C. for 90 minutes and washed twice with 200 μL blocking buffer. The blocking buffer was discarded, and the cells were resuspended in 100 μL of streptavidin-Alexa 488 solution (Invitrogen, 1:500 in blocking buffer) and incubated at 4° C. for 1 hour. The plates were washed three times with blocking buffer and added with 200 μL of blocking buffer.
The mean fluorescence intensity (MFI) was determined using FACS Calibur (BD).

Row | Binder | IC50 (read off the curve) [nM]
25 | B7 | ~10
26 | B8 | ~10
27 | B10 | ~10

These binders were tested against T1, human CTLA-4 expressed on cells … (assay: flow cytometry on 293F-hCTLA-4 cells).

Row | Binder | binding result
28 | B14 | binds
29 | B15 | binds

Source: patent US20190202914A1 (HARBOUR BIOMED SHANGHAI, published 2019)
